Experimental findings from paper PMC3630172 are described below.

One may read the Kd as the constant that tells how readily two partners part at equilibrium.

This data set deals with GST-rPfPuf2 (Plasmodium falciparum). Kind of data set: EMSA. The following applies: LightShift RNA EMSA binding buffer (salt, pH not given), 5% glycerol, 2 ug tRNA per 20 ul, RNase inhibitor, 2.5 nM RNA, 0.25-400 nM rPfPuf2, room temperature …. (Mobility shift assays separate free from complexed probe on a gel.)
As to “UUCUCAUUUCCUAAUAAAUUGUUGUGAAAACAA [pfs25 RNA1M]”, the dissociation constant (Kd) amounted to 0.169 µM.

As to “UUCUCAUUUGUUAAUAAAUUGUUGUGAAAACAA [pfs25 RNA1]”, the dissociation constant (Kd) stood at 0.0115 µM.

Regarding “GAAAUGUUCUUUUCCAAUUAUAUUUUGUUCGAUGAUUC [pfs28 RNA1M]”, the dissociation constant Kd stood at 0.143 µM.

“GAAAUGUUCUUUUGUAAUUAUAUUUUGUUCGAUGAUUC [pfs28 RNA1]”: the equilibrium dissociation constant (Kd) was found to be 0.0067 µM.
